Results on 1 variant are retold here after IntAct's records for PubMed 21346153.

The labels stand for the following.
B1: Peroxiredoxin-6 (Rattus norvegicus (Rat)), O35244 (parent)
chain: MPGGLLLGDEAPNFEANTTIGHIRFHDFLGDSWGILFSHPRDFTPVCTTELGRAAKLAPEFAKRNVKLIALSIDSVEDHFAWSKDINAYNGAAPTEKLPFPIIDDKDRDLAILLGMLDPAEKDEKGMPVTARVVFIFGPDKKLKLSILYPATTGRNFDEILRVVDSLQLTASNPVATPVDWKKGESVMVLPTLPEEEAKQLFPKGVFTKELPSGKKYLRYTPQP

The first assay covers variants of B1. The settings on record: with 1433e_human YWHAE.
Regarding MPGGLLLGDEAPNFEANTTIGHIRFHDFLGDAWGILFSHPRDFTPVCTTELGRAAKLAPEFAKRNVKLIALSIDSVEDHFAWSKDINAYNGAAPTEKLPFPIIDDKDRDLAILLGMLDPAEKDEKGMPVTARVVFIFGPDKKLKLSILYPATTGRNFDEILRVVDSLQLTASNPVATPVDWKKGESVMVLPTLPEEEAKQLFPKGVFTKELPSGKKYLRYTPQP [S32A], the “effect of a mutation on the interaction” value is listed as “decreasing interaction strength”.

The variants in the next assay derive from B1. Particulars: with 1433e_mouse Ywhae.
On to MPGGLLLGDEAPNFEANTTIGHIRFHDFLGDAWGILFSHPRDFTPVCTTELGRAAKLAPEFAKRNVKLIALSIDSVEDHFAWSKDINAYNGAAPTEKLPFPIIDDKDRDLAILLGMLDPAEKDEKGMPVTARVVFIFGPDKKLKLSILYPATTGRNFDEILRVVDSLQLTASNPVATPVDWKKGESVMVLPTLPEEEAKQLFPKGVFTKELPSGKKYLRYTPQP [S32A], for which the “effect of a mutation on the interaction” value is “decreasing interaction strength”.
